Here are results for 83 variants from the RNAGym collection of RNA variant scans (doi:10.1073/pnas.2313332121).

The labels stand for the following.
B1: TPR t1 (parent)
chain: GACCAAUCUGCCCUCAGAGCUCGAGAACAUCUUCGGAUGCAGAGGAGGCAGGCUUCGGUGGCGCGAUAGCGCCAACGUCCUCAACCUCCAAUGCAUCCCACCACAUGAUGAUGCCUGAAGAGCCUUGGUUUUUUG

This data set covers variants of B1. Description: polymerase ribozyme fitness, log enrichment relative to wild type (log ratio); higher = more active; in vitro selection for triplet polymerase activity. The method in brief:
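One round of in vitro selection, in triplicate, was applied to PCR-built, transcribed mutant libraries of each subunit of a heterodimeric triplet polymerase ribozyme. The steps were annealing with a biotinylated primer, partner subunit and triplets, incubation frozen at −7 °C, gel excision of extended constructs, streptavidin-bead capture and RT-PCR. Fitness is the logarithm, base 2, of genotype enrichment over wild-type enrichment from inverse-variance-weighted replicate averages of Illumina-sequenced inputs and outputs, keeping genotypes with ≥10 input reads and ≥1 read per output.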
As for C15A C20A G71U A118U, the “polymerase ribozyme fitness (log ratio)” value is -4.11. The value for U14A C56A C62U was -2.93. Consider U14C G57A C97U, for which the “polymerase ribozyme fitness (log ratio)” value was -3.84. The value for C15A A37U G39A G42U A90U was -3.14; that for C15U A74G C88A A91C was -2.13; that for C15A G61U A105C was -4.93.

On to C13U C28G G63U C98U C115U, for which the “polymerase ribozyme fitness (log ratio)” value was -5.89. The value for C13U G42U C70U A121C was 0.0681; that for C15U A16U G58C C72U C80A A111C was -6.92. The value for C13U C82G A90U C104A was -5.14; that for C15A C70U was -2.96. The value for C15A C70A was -2.47.

Take C15A G39A: the “polymerase ribozyme fitness (log ratio)” value was -2.28. As to C15A G39C, the “polymerase ribozyme fitness (log ratio)” value is -3.41. Then U14A C70G U125A, with -4.4. In the case of U14C A26C C70U U78A A83U U109G U112A, the “polymerase ribozyme fitness (log ratio)” value is -6.59. Consider U14G C79G, for which the “polymerase ribozyme fitness (log ratio)” value was -3.52. Then C13U G35U, with -3.47; and U14A G120A, with -0.235; and C13U C124U, with 1.96. Then C13U C34A G71C A121U, with -2.27; and C15G U32C C49U U87G C123A, with -3.12; and U14A C79U G117U, with -5.29. Consider C13U G60C, for which the “polymerase ribozyme fitness (log ratio)” value is -0.502. Then C15G A83U C115G C123A, with -5.38; and C15A G47U G61U, with -3.15.

Take C13U U112C: the “polymerase ribozyme fitness (log ratio)” value came to 1.07.

Take C15A C20A A118U: the “polymerase ribozyme fitness (log ratio)” value was -3.93. Then U14G G60A G117U, with -5.67. The value for C13U C70A was -0.46.

U14A U21G G120U C124U: the “polymerase ribozyme fitness (log ratio)” value is -0.621. Then C13U U55G A91G, with -0.322.

Regarding C15G C70U C82G C88A, the “polymerase ribozyme fitness (log ratio)” value is -4.4. The value for U14A A50C U125G was -3.97.

With U14A C22A C101A U116G C124U, the “polymerase ribozyme fitness (log ratio)” value was -5.17. Then C13U G113U, with -2.4; and C15G C70U, with -3.1. On to C15A G63C C88U, for which the “polymerase ribozyme fitness (log ratio)” value was -3.01.

On to C15G G47U A83U A108U C114G U116G G117C, for which the “polymerase ribozyme fitness (log ratio)” value is -6.68. The value for U14C C72A was -0.983; that for U14G G110A U130A was -3.04. Then C15U C86U C102A, with -4.01; and C15A A46C A84C A91U, with -4.15. Then C13U C40U A43G G52U G58C A91C, with -2.35; and C13U C40U, with -0.246; and C13U C40A, with -0.359. For the variant U14G A41C A74U A84C, the “polymerase ribozyme fitness (log ratio)” value was -3.77. The value for C15G C62U was -1.91; that for C15A C22A U96A C124U was -5.05. The value for C15U A43U G45C C94G was -4.68; that for C15G G44C G47A G69U G135U was -3.36.

C13U G60C C82U U96G: the “polymerase ribozyme fitness (log ratio)” value was -1.02. Then C13U G35A G48A U59C C86U G120U, with -5.19; and C15U C22G U54G G71U G93A G122A C123U, with -4.87; and U14A A37U G93U U132A, with -4.47.

As to C15A U32C G71C, the “polymerase ribozyme fitness (log ratio)” value was -2.71. Then C13U G45U C56G U87A, with -3.44. Then C13U C72G A74U G93A C114G, with -4.31; and U14C G60C C64A U109G, with -6.09. Then U14G C20U C22G G23C U33C U38G C62U U112C A118G G127A, with -6.3; and C13U U55A C88U, with -0.31; and C13U C40A C82A C89A, with -2.38. C15A G48U A50G C97U: the “polymerase ribozyme fitness (log ratio)” value was -4.67. As to U14C A46U C62U U125A, the “polymerase ribozyme fitness (log ratio)” value was -3.37.

Turning to U14A C115U, the “polymerase ribozyme fitness (log ratio)” value was -3.52. The value for C15G G71U C72U A95U was -4.5. Then U14A C70A, with -4.09. The value for C15A G52A G61U C88A A95C U112C C124U was -1.64; that for U14A G52A was -3.3. Turning to C13U C72U U92C A105G, the “polymerase ribozyme fitness (log ratio)” value is -5.23.

For C15A C82A, the “polymerase ribozyme fitness (log ratio)” value was -3.12. Take C15U A16U G42C G61A C89A: the “polymerase ribozyme fitness (log ratio)” value is -1.37. Then C15G G63U, with -3.98; and C15G G63A, with -3.35. The value for U14A U54A C56U U130G was -3.42. The value for U14A U32C U87A C101A was -3.54; that for U14C C31G U33G G65U A95U G117U was -7.34; that for C15G G44C G57U was -3.85. With U14G U54A G61C, the “polymerase ribozyme fitness (log ratio)” value is -2.7. The value for C13U G47C C72G G110A was -3.24.

U14C A18G G63A U78C G117U: the “polymerase ribozyme fitness (log ratio)” value was -5.13.

On to C13U G44U C56A, for which the “polymerase ribozyme fitness (log ratio)” value is -1.59. With C15G U55C A75G, the “polymerase ribozyme fitness (log ratio)” value was -3.14.
